Assay: label from the status in PepcDB records

| Sequence | protein production |
| --- | --- |
| MERLTRWLLVMMAMLLAASGLVWFYNSNHLPVKQVSLKGNLVYSDKKTLGSLAKEYIHGNILRTDINGAQEAYRRYPWIASVMVRRRFPDTVEVVLTERKPVARWGDHALVDGEGNVFEARLDRPGMPVFRGAEGTSAEMLRRYDEFSTVLAKQGLGIKEMTYTARSAWIVVLDNGITVRLGRENEMKRLRLFTEAWQHLLRKNKNRLSYVDMRYKDGFSVRYASDGLPEKESEE | failed |
| MERNANYALVGAISLALFMGLVIFAVWLAKLSFNRDYDVYDILFVGPVRGLSQGGEVHFNGIKVGEVTRIELDKTDTNRVIARVRVTSDVPIKVDSYATLEPQGITGVNYVQITAGAPNKELLKDTVKTGKVPVIRTQRSALSDLLEGGGTVLTRTIEALDRVNRVLSDRNIKSFGATLTNVQAVTQEMRDRKEILADAQKALQSIDQTAQSITELSNSANTLVDGDAKRTLKELGDAAAELRATAKDARGMVTKLEGPASDFATTGLPQLSSAIVTLQSAAESLDRLVGEVEQNPRGVVGKAPAKEVEVKPLEHHHHHH | not failed |
| MERRTILVTGASGFVGGALCRQLATLGSFAIRAASRDLGGASVAGIQAVTVADLSATTDWARALSGVDLVVHAAARVHVMKETASDSLAEFRRVNVDGTLNLARQAAAAGVRRFIFISSIKVNGESSQPGQPLRADDSPAPQDAYGVSKHEAEQGLRQLAAATGMEVVVIRPVLVYGPGVKANFHSMMRWLQRGVPLPFGAVCNRRSLVSLANLVDLVVTCIDHPRAANQTFLASDGDDVSLTQLLRALGLALGRPARLLPVPAGLLRGAVLLIGRRDLAQRLFGTLQVDIEKNRQLLGWYPPCTLEQGLNMTARSFLGARRP | failed |
| MERSAIQIPAGRIDDAVAKVDGLVGELMQNTGIPGMAVAIVHGGKTLYAKGFGVRDVGKGGGPDNKVDADTVFQLASVSKSVGATVVAHAVTDNVVTWDTPVVSKLPWFALRDPYVTGQVTIADLYSHRSGLPDHAGDLLEDLGYDRRQVLQRLKYLPLAPFRISYAYTNFGVTAAAEAVAAAAGQSWEDLSDEVLYRPLGMGSTSSRFTDFLARPNHAVNHVKVADRWEARYQRDPDAQSPAGGVSSSLNDMTHWLAMVLADGVYNGRRITSPEALLLVYTPQVISRHPVSPRARASFYGYGFNVGVTSSGRTEYSHSGAFGLGAAANFVVLPSEDLAIIALTNAGPIGVPETLTAEFMDLVQYGQVREDWAALYKKAFAPLNELAGSLVGKQSPANPAPSRPLNDYVGVYANDYWGPATVTYHDGQLRLSLGPKNQTFDLTHWDGDTFTFTLSTENALPGSISKATFAGDTLNLEYYDADKLGTFTRLEHHHHHH | failed |
| MERVSERSLSENLRRSDREDGKIIEWEEFDHELTRLWSLSSAMKLATERKQILQPKLESLIQVSTESLRRTNELEEMRQRLEARKLLVDKTSVACKVTEQDVKKKEENLSTEVRSLLVGGTTLSIAKSKLQESNCQLEGESGYAHLKIVTNKLRKRQQFMVSQVSFIYPLKIEAGPSQDQELESFPGGSRLGTKPLSQGSVRILGLPFSMAPFTKMSFFTDKKEVQKSATALGYVAHAVSLIAPYLRVPIRYPLCLGGSKTYIRDYAPYIEPSPSDMSPITTLSQNINFVEFPLFLDGQDTTRAAYAVFLLNKNIEQLLNFVGENSLGPRQVLANLKELIRIIQSPDYIDYL | failed |
| MESADSGRSDPVKGDDPGPSFVSSPPATPSRYESQKRRDWNTFLQYLKNHKPPLALSRCSGAHVIEFLKYLDQFGKTKVHVAACPYFGHQQPPSPCSCPLKQAWGSLDALIGRLRAAYEENGGRPDSNPFAARAVRIYLREVRESQAKARGIPYEKKKRKRPPTVTTVRVDVASSRQSDGDPCNVGAPSVAEAVPP | failed |
| MESDIEILSEADASMRKLRIFGIDDREDENGRRRIKDVEVYVPIVCGSIAFYLGKKATEYRTHKWTVYVRGATNEDLGVVIKRVIFHLHPSFNNPTRVVDAPPFALSECGWGEFKIDITVFFHTDVCEKKLELSHVLKLNPENAYGPIPKSIKIPVVAESYNEVVFPDPFESFVARVHNHPAIQISNIPDGLNLPPPGAFLF | not failed |
| MESFHPLSLLKPSIRGWCIRGRVVRTFLVSLVPSSKVMGLILAEEHGMTIEATVGYKMSDHYKDFINEGEWVTITNFGVVENSGSVRATTHSFKIGFFVDIVVRLTSPLPAIPHYRLASFSSIIDDEIDKSVLVDLVGAIYDVGELINTRPKQNNVDDLTLIFKISDNENRVLECLATKKEALDFDHNYRRYGGGVIVAVLGWWKIDRYFDGPKNVRVCTAGTISTVFPDPDIPESNEIHEI | failed |
| MESLSIIFRWFVGLRSVGSSLGRKPDQTEETTLTTKLDIAPANDRELVVARIIDAPRENVYRCWTDTRLLTQWFSPKPWTTPRAEMDMRTGGSSLVIMADPDGNEFPNPGVFLEVIPGKKIIFTDAYTQAWEPSEKPFMTGVLTFEDEGEGRTRYIARVRHWSVADRERHEAMGFHVGWGQCTDQLEDLARTL | failed |
| MESLTLQPIELISGEVNLPGSKSVSNRALLLAALASGTTRLTNLLDSDDIRHMLNALTKLGVNYRLSADKTTCEVEGLGQAFHTTQPLELFLGNAGTAMRPLAAALCLGQGDYVLTGEPRMKERPIGHLVDALRQAGAQIEYLEQENFPPLRIQGTGLQAGTVTIDGSISSQFLTAFLMSAPLAQGKVTIKIVGELVSKPYIDITLHIMEQFGVQVINHDYQEFVIPAGQSYVSPGQFLVEGDASSASYFLAAAAIKGGEVKVTGIGKNSIQGDIQFADALEKMGAQIEWGDDYVIARRGELNAVDLDFNHIPDAAMTIATTALFAKGTTAIRNVYNWRVKETDRLAAMATELRKVGATVEEGEDFIVITPPTKLIHAAIDTYDDHRMAMCFSLVALSDTPVTINDPKCTSKTFPDYFDKFAQLSR | not failed |
| MESMQDLWTLKYRAETLEGMLGNEHAVRTLSELLQSGTLPHLIFYGPENSGKTTASLALARELYGETWKNNFVYFNASDFFDQGKRYLVRDKRFVRILGTDDPKKIYKSVIDIFKEVVNEYAGMASIDADYKIIYIDNAESLSSDAQHALRRIMEKYSSTCRFILSTTRPSKLISPLRSRGLQVFFAYVPDSLLKTHLERIALAEKLKLSDGALDAVLYLAKGNVARAVQTLQLAALRSEGAEITEEIVYEATMKGRDETIDELLEAALAGDFARGRQLIDGMIIEKGLSGTDIFEGLSEALIDSGETDADIARLIVSISEADARLTDATSERIQLEKLISTFS | failed |
| MESSGNPESTTFFYYDLQSQPCENQAWVFATLATTVLYCLVFLLSLVGNSLVLWVLVKYESLESLTNIFILNLCLSDLVFACLLPVWISPYHWGWVLGDFLCKLLNMIFSISLYSSIFFLTIMTIHRYLSVVSPLSTLRVPTLRCRVLVTMAVWVASILSSILDTIFHKVLSSGCDYSELTWYLTSVYQHNLFFLLSLGIILFCYVEILRTLFRSRSKRRHCTVKLIFAIVVAYFLSWGPYNFTLFLQTLFRTQIIRSCEAKQQLEYALLICRNLAFSHCCFNPVLYVFVGVKFRTHLKHVLRQFWFCRLQAPSPASIPHSPGAFAYEGASFY | failed |
| MESTKQEEQGIYAATPPATGLLERLFKLRQHGTTVRTELAAGLTTFITMAYIIFVNPNIMADAGIDHGAAFVATCLAAALGCFLMGLYANWPVGLAPGMGLNAFFTYTVVGTMGYSWQIALGAVFISGVMFMLLTFSRVREWLLNSIPRSLRFAMGAGVGLFLGLIGLKTAGIVVASPATLIKLGHLTSPGPLLAALCFLMIAVLEYRRVFGGILISILSVTLVGWALGLVQYGGVFSAPPSLAPTFLAMDIAGAFNVTMISVILAFLFVHMFDTAGTLMGVAQRAHLVKEDGRIENLSKAMKADSASSVFGGMLGVPPVTSYVESAAGVAAGGRTGLTAVVVGVLFVAAMFFAPLAGMIPAFATAGALIYVAMLMMGGMAHIDWDEHTETIPAIVTVIMMPLTFSVADGIALGFITYVAMKVLTGKHREVSASLYALFVIFVAKFIFL | failed |
| MESYDIEGSNQNYVYINVNRWTSTEYPQNTFVYEVLRTPIGSSLESGPEIVKVGVRSTKVASKDITVTLDIDNCASIGEFSSFPDGVKVTLDKKELVIPAGSMLSSDSVTIEIEDGKWSEFVNTSYLLPLKVTSVSNAALSETHSSAYLAVSTSFTNCVPGATSVEGTLISDRSAWTATNNGVDVGTTLFDGNTRTYPSQDASSTVIVNLNGVYQNITGIRLQYYSRNYSLSSAAVYTSETGGEDYEYQGNVTFSRATPQYIRFYGAVSARYVKLELLPYSSGYGIVLSEFDMYQNELEHHHHHH | not failed |
| METKILSNATHKCVLVIDNAQPTGIVANIASVLSMTLGCRVSNIVSHDVYDKQGERHLGITQLPIPILGASQEKIKELRNYFHSLEIEDLVLVDFSTIAQQSRTYDEYEREMYSANEDDLHYVGIGICAEKKAINKATGSLSLIRLEHHHHHH | failed |

Source: a protein production outcome set (Wang et al. 2014)
